In publication PMC4431850 (PLoS ONE, 2015):

Columns and labels:
[1] = target: the molecule itself; test: SEC-MALS; Superdex200 10/30 coupled to light scattering (miniDAWN TREOS) and refractive index detectors; 20 mM sodium phosphate pH 7.5, 2 mM DTT; oligomeric state
[2] = target: the molecule itself; test: SEC-MALS; light scattering experiments, data not shown; oligomeric state
[3] = target: T1, Cul3^NTD, N-terminal region (residues 20-381) of cullin 3 (UniProt Q13618 20-381); test: ITC; BTB domain (55 μM as tetramer) titrated into Cul3^NTD (25 μM); 22°C; 20 mM NaP, 200 mM NaCl, 2 mM DTT pH 7.5; single-binding site model; conditions: both partners purified
T1 construct: cullin 3, N-terminal region, residues 20-381; Printed Mw 42 kDa; source: expressed and purified according to Balasco et al. [19]; recombinant, bacterial system

[4] = target: T1, Cul3^NTD, N-terminal region (residues …); test: SEC; BTB domain mixed with Cul3^NTD at 4°C in 20 mM NaP, 200 mM NaCl, 2 mM DTT pH 7.5; Superdex 200 10/30; SDS-PAGE of the peaks; conditions: both partners purified

T1 sequence (Q13618 20-381): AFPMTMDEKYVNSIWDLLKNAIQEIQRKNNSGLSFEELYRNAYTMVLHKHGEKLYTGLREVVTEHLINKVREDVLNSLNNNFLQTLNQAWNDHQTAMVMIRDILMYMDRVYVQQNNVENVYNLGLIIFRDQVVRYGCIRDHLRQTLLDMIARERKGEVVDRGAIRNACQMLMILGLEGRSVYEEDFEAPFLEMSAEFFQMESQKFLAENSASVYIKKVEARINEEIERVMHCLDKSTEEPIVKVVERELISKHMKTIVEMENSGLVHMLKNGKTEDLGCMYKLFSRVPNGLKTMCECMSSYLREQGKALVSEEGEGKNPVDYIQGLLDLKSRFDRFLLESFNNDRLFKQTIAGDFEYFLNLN

B1: chimeric BTB domain CHIM11/12^BTB (KCTD11^BTB with residues 42-63 replaced by residues 61-80 of KCTD12^BTB) (domain or fragment, UniProt Q693B1-2 15-41, looked up)
chain: GPVTLNVGGTLYSTTLETLTRFPDSMLWRMFTQQQPQELARDSKGRFFIDRDGKAFRHILNFLRLGRLDLPRGYGETALLRAEADFYQIRPLLDALRELE
notes: KCTD11 BTB domain (15-116 of the long form, isoform 2) up to the replaced α2β3 loop (42-63); numbers count on: the long form (isoform 2); KCTD12, residues 61-80, predicted α2β3 loop; KCTD11 BTB domain (15-116 of the long form, isoform 2) after the replaced α2β3 loop (42-63); also called chimeric variant of KCTD11; source: E. coli, purified (procedure used for KCTD11 [5])
stoichiometry N [1]: 4

B2: BTB domain of KCTD11 (KCTD11^BTB) (domain or fragment, UniProt Q693B1-2 15-116, looked up)
chain: GPVTLNVGGTLYSTTLETLTRFPDSMLGAMFRAGTPMPPNLNSQGGGHYFIDRDGKAFRHILNFLRLGRLDLPRGYGETALLRAEADFYQIRPLLDALRELE
notes: KCTD11, BTB domain, residues 15-116 of the long form of the protein (isoform 2, UniProt Q693B1-2); numbers count on: the long form (isoform 2); Tetramer (~46 kDa); source: E. coli BL21(DE3), purified (procedure of Correale et al. [5])
stoichiometry N [2]: 4
Kd [3]: 25 ± 2 nM
dH [3]: -21 ± 0.1 kcal/mol
stoichiometry N [3]: ~0.25 KCTD tetramers per Cul3^NTD
stoichiometry N [4]: 1 BTB chains : Cul3^NTD (4:4)

B3: BTB domain of KCTD15 (KCTD15^BTB) (domain or fragment, human, UniProt Q96SI1-1 61-157, looked up)
chain: DVGGHMYTSSLATLTKYPDSRISRLFNGTEPIVLDSLKQHYFIDRDGEIFRYVLSFLRTSKLLLPDDFKDFSLLYEEARYYQLQPMVRELERWQQEQ
notes: KCTD15, human, BTB domain, residues 61-157 of UniProt Q96SI1-1; cloned NdeI/EcoRI into pET28b+; Tetramer by light scattering (47.1 kDa against 47.5 kDa expected); source: E. coli BL21(DE3) pLys-S co-transformed with pREP4 GroESL, purified (Ni-NTA, Superdex200)
stoichiometry N [1]: 4

B4: BTB domain of KCTD6 (KCTD6^BTB) (domain or fragment, UniProt Q8NC69 10-110, looked up)
chain: MTDPVTLNVGGHLYTTSLTTLTRYPDSMLGAMFGGDFPTARDPQGNYFIDRDGPLFRYVLNFLRTSELTLPLDFKEFDLLRKEADFYQIEPLIQCLNDPKP
notes: KCTD6, BTB domain, residues 10-110 of UniProt Q8NC69; Tetramer (~46 kDa); source: E. coli BL21(DE3), purified (protocol of Pirone et al. [23])
stoichiometry N [2]: 4

B5: BTB domain of KCTD12 (KCTD12^BTB) (domain or fragment, UniProt Q96CX2 27-131, looked up)
chain: AEPPLFPDIVELNVGGQVYVTRRCTVVSVPDSLLWRMFTQQQPQELARDSKGRFFLDRDGFLFRYILDYLRDLQLVLPDYFPERSRLQREAEYFELPELVRRLGA
notes: KCTD12, BTB domain, residues 27-131 of UniProt Q96CX2; Tetramer (~46 kDa); source: E. coli BL21(DE3), purified (procedure of Correale et al. [24] and Errington et al. [25])
stoichiometry N [2]: 4
